In US20060115477A1 (Bristol-Myers Squibb, published 2006):

Target: T1, neuropilin-1 (human, UniProt O14786 22-923)
T1 construct: whole, on cells; On intact cells in FACS and cell assays; pulled down from Triton X-100 lysate of HT1080 cells in the immunoprecipitation, identified as the full length form by MALDI peptide mass fingerprint; also called NP-1; VEGF165R
Assay: competition FACS on HT1080 cells preincubated with VEGF165 (legend of FIG. 17)
Method: ScFv's were labeled with fluorescein isothiocyanate (Molecular Probes, # F-1906) according to the instructions of the manufacturer. HT1080 cells were preincubated with a control scFv, a NP-1-binding scFv's (e.g. scFv8, scFv13 or scFv22) (both at 25 μg/ml) or VEGF₁₆₅ (R&Dsystems, #293-VE/CF) ([…]) for 2 hours at 0° C. and the fluorescein labeled NP-1-binding scFv (5 μg/ml) was added for 30 min. at 0° C. Bound fluorescein labeled scFv were detected by flow cytometry and the geometric mean fluorescence intensity was recorded. In order to determine if NP-1-binding scFv has overlapping epitopes with VEGF and each other for binding to cell surface NP-1, a competition FACS with directly labeled scFv was performed. […] Furthermore, scFv8 and scFv24 have mutually overlapping epitopes whereas scFv13 has an epitope distinct from scFv8 and scFv24.

T1 sequence (O14786 22-923): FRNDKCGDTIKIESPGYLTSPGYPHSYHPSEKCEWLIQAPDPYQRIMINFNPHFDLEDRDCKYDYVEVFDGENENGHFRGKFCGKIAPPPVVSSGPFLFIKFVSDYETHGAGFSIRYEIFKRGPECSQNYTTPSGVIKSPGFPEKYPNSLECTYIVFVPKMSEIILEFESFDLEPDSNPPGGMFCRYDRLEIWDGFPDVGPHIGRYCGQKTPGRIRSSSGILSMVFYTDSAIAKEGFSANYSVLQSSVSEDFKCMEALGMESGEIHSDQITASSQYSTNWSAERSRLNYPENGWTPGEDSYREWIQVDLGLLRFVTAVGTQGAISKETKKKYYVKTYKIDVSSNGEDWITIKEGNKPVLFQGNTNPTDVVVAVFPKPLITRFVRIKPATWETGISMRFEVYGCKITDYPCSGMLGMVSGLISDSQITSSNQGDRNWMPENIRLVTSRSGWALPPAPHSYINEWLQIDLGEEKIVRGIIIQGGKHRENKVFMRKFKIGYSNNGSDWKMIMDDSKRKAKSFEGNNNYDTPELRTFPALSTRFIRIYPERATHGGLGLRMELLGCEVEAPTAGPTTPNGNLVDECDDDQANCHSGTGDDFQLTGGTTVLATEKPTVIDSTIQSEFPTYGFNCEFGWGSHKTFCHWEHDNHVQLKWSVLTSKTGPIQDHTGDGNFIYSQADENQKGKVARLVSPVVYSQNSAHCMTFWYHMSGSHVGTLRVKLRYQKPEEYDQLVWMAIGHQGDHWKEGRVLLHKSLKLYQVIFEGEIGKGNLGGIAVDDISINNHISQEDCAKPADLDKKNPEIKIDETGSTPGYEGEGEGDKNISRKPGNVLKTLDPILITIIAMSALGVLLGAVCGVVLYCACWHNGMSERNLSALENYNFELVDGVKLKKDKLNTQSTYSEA

binding result: binds
B1: VEGF165 (R&Dsystems, #293-VE/CF) (ligand, human, UniProt P15692-4 27-191, looked up)
chain: APMAEGGGQNHHEVVKFMDVYQRSYCHPIETLVDIFQEYPDEIEYIFKPSCVPLMRCGGCCNDEGLECVPTEESNITMQIMRIKPHQGQHIGEMSFLQHNKCECRPKKDRARQENPCGPCSERRKHLFVQDPQTCKCSCKNTDSRCKARQLELNERTCRCDKPRR
notes: mature; also called recombinant human VEGF
